The values below come from PMC12819147 (2025).

Assay [1] has as its target Schizosaccharomyces pombe Ccr4–Not complex with an FITC label on the Not9 subunit (S. pombe) (UniProt P87112). Nature of the assay: fluorescence polarisation; fluorescence anisotropy; Puf3 constructs titrated into 25 nM Ccr4–Not with FITC on Not9; 20 mM HEPES pH 8, 100 mM NaCl, 0.5 mM TCEP; quadratic fit; apparent KD. On the technique in general: Polarisation of emitted light reports the rotation of a fluorescent probe.

In assay [2] the target is recombinant full-length H. sapiens CCR4–NOT deadenylase complex (human).
The target is the same in assay [3]. This is another data set of the same source.
The target in assay [4] is Schizosaccharomyces pombe Ccr4–Not complex with an FITC label on the Not9 subunit (S. pombe, UniProt P87112 1-2100; P87240 1-306; O13870 1-640; Q92368 1-283; O74874 1-690; O74856 …, fluorescein (FITC label) from a CoA–fluorescein conjugate on the YbbR tag at the N terminus). The assay can be described thus: FP; apparent.
Assay [5] has as its target Schizosaccharomyces pombe Ccr4–Not complex, full-length, unlabeled (Not1, Not2, Not3, Not4, Not9, Ccr4, Caf1) (S. pombe) (UniProt P87112).

For “Puf3 variant with residues 53–68 and 217–232 both replaced with a GSN linker (from UniProt O94462 1-52; O94462 69-216; O94462 233-732) (natural protein)”, the Kd in assay [1] turned out to be 10000 nM.
As to “PUM1^Δ587 (from UniProt Q14671 588-1186) (domain or fragment)”, the fold decrease in stimulation of deadenylation by human CCR4–NOT (in vitro targeted deadenylation assay) in assay [2] worked out at 4 fold. The stimulation of removal of the poly(A) tail by human CCR4–NOT in assay [3] is 10 fold.

B1: Puf3 construct spanning residues 109–208 (anisotropy) (domain or fragment)
chain: SANHHGNPFPNGKQSIKAMPSLVNLQEDSVISKFPNSLEVPFRKRSESTSSSLSGLHSDLRPLKTELYGQLNSECGARFPQTLKSPLTPIGGDSARTVSA
Consider B1, for which the Kd in assay [4] was more than 40000 nM; in assay [1] it was more than 50000 nM.

B2: Puf3 residues 158–258, GST–lipoyl tag fusion with no PUM domain (domain or fragment)
chain: SSSLSGLHSDLRPLKTELYGQLNSECGARFPQTLKSPLTPIGGDSARTVSASTARTSDKFFPRHTRAHSDFWIPATSKPSRHASHSSIGDLTTITQSSISS
Regarding B2, the Kd in assay [1] was 7000 nM.

B3: Puf3 variant with residues 217–232 replaced with a GSN linker (natural protein)
chain: MFTAVNSNPNASESISGNSAFNFPSAPVSSLDTNNYGQRRPSLLSGTSPTSSFFNSSMISSNYTFPHGSNKQASLESPVSYSNPIPSLTWLSLDGDSPDSLVSTPTAPSANHHGNPFPNGKQSIKAMPSLVNLQEDSVISKFPNSLEVPFRKRSESTSSSLSGLHSDLRPLKTELYGQLNSECGARFPQTLKSPLTPIGGDSARTVSASTARTSDKTSKPSRHASHSSIGDLTTITQSSISSGSGSFKPSWDGSFDSSLMAHQSYGTSPAFANGNSPTLKNDSSFFGSASVRPTVSPIGTSFRQSLPDISAFGIPKTETNPSEVVAPGTIPISVLPTSNFSAATPANPSLINQNGQEFLQQSRVLYLFHANKQRHFELSDILGNVVLFSTDQHGSRFIQQKLATATEEEREAVFQEIASTSCLQLMMDIFGNYVVQKYFEFGNEKQKQILLSQIKGHVFSLSLQMYGCRVVQKAIEYISPEHQVQLIQELDGHVLDCVCDQNGNHVIQKAIECIDTGHLQFILRALRPQIHVLSAHPYGCRVIQRAIEHCHSERKLIIEELLPHILKLTQDQYGNYVVQHILRTGSESDKKYIFDLMIDHLLFLSCHKFASNVVERCISYISDVDRRRILNKIISEKAENCSILMLMMKDKYANYVIQKLLDASPEEERDLLISYIYPHISVLKKFTYGKHLIMSVERFRQKSISAVPKLASKECK
In turn, B3 had a stimulation of Ccr4–Not-mediated deadenylation (in vitro targeted deadenylation assay, t1/2) in assay [5] of 2 fold. Further, the Kd in assay [4] came to 420 nM.

B4: Puf3 residues 109–258, GST–lipoyl tag fusion with no PUM domain (domain or fragment)
chain: SANHHGNPFPNGKQSIKAMPSLVNLQEDSVISKFPNSLEVPFRKRSESTSSSLSGLHSDLRPLKTELYGQLNSECGARFPQTLKSPLTPIGGDSARTVSASTARTSDKFFPRHTRAHSDFWIPATSKPSRHASHSSIGDLTTITQSSISS
Regarding B4, the Kd in assay [1] worked out at 800 nM.

B5: 1-158 (protein)
chain: MFTAVNSNPNASESISGNSAFNFPSAPVSSLDTNNYGQRRPSLLSGTSPTSSFFNSSMISSNYTFPHGSNKQASLESPVSYSNPIPSLTWLSLDGDSPDSLVSTPTAPSANHHGNPFPNGKQSIKAMPSLVNLQEDSVISKFPNSLEVPFRKRSESTSQSRVLYLFHANKQRHFELSDILGNVVLFSTDQHGSRFIQQKLATATEEEREAVFQEIASTSCLQLMMDIFGNYVVQKYFEFGNEKQKQILLSQIKGHVFSLSLQMYGCRVVQKAIEYISPEHQVQLIQELDGHVLDCVCDQNGNHVIQKAIECIDTGHLQFILRALRPQIHVLSAHPYGCRVIQRAIEHCHSERKLIIEELLPHILKLTQDQYGNYVVQHILRTGSESDKKYIFDLMIDHLLFLSCHKFASNVVERCISYISDVDRRRILNKIISEKAENCSILMLMMKDKYANYVIQKLLDASPEEERDLLISYIYPHISVLKKFTYGKHLIMSVERFRQKSISAVPKLASKECK
On to B5, for which the Kd in assay [4] was approximately 10000 nM.

B6: Puf3 variant with residues 53–68 replaced with a GSN linker (natural protein)
chain: MFTAVNSNPNASESISGNSAFNFPSAPVSSLDTNNYGQRRPSLLSGTSPTSSSNKQASLESPVSYSNPIPSLTWLSLDGDSPDSLVSTPTAPSANHHGNPFPNGKQSIKAMPSLVNLQEDSVISKFPNSLEVPFRKRSESTSSSLSGLHSDLRPLKTELYGQLNSECGARFPQTLKSPLTPIGGDSARTVSASTARTSDKFFPRHTRAHSDFWIPATSKPSRHASHSSIGDLTTITQSSISSGSGSFKPSWDGSFDSSLMAHQSYGTSPAFANGNSPTLKNDSSFFGSASVRPTVSPIGTSFRQSLPDISAFGIPKTETNPSEVVAPGTIPISVLPTSNFSAATPANPSLINQNGQEFLQQSRVLYLFHANKQRHFELSDILGNVVLFSTDQHGSRFIQQKLATATEEEREAVFQEIASTSCLQLMMDIFGNYVVQKYFEFGNEKQKQILLSQIKGHVFSLSLQMYGCRVVQKAIEYISPEHQVQLIQELDGHVLDCVCDQNGNHVIQKAIECIDTGHLQFILRALRPQIHVLSAHPYGCRVIQRAIEHCHSERKLIIEELLPHILKLTQDQYGNYVVQHILRTGSESDKKYIFDLMIDHLLFLSCHKFASNVVERCISYISDVDRRRILNKIISEKAENCSILMLMMKDKYANYVIQKLLDASPEEERDLLISYIYPHISVLKKFTYGKHLIMSVERFRQKSISAVPKLASKECK
B6 had a fold decrease in stimulation of Ccr4–Not-mediated deadenylation (in vitro targeted deadenylation assay, t1/2) in assay [5] of 2 fold. Moreover, the Kd in assay [4] was found to be 290 nM.

B7: MBP-tagged full-length S. pombe Puf3 (natural protein)
chain: MFTAVNSNPNASESISGNSAFNFPSAPVSSLDTNNYGQRRPSLLSGTSPTSSFFNSSMISSNYTFPHGSNKQASLESPVSYSNPIPSLTWLSLDGDSPDSLVSTPTAPSANHHGNPFPNGKQSIKAMPSLVNLQEDSVISKFPNSLEVPFRKRSESTSSSLSGLHSDLRPLKTELYGQLNSECGARFPQTLKSPLTPIGGDSARTVSASTARTSDKFFPRHTRAHSDFWIPATSKPSRHASHSSIGDLTTITQSSISSGSGSFKPSWDGSFDSSLMAHQSYGTSPAFANGNSPTLKNDSSFFGSASVRPTVSPIGTSFRQSLPDISAFGIPKTETNPSEVVAPGTIPISVLPTSNFSAATPANPSLINQNGQEFLQQSRVLYLFHANKQRHFELSDILGNVVLFSTDQHGSRFIQQKLATATEEEREAVFQEIASTSCLQLMMDIFGNYVVQKYFEFGNEKQKQILLSQIKGHVFSLSLQMYGCRVVQKAIEYISPEHQVQLIQELDGHVLDCVCDQNGNHVIQKAIECIDTGHLQFILRALRPQIHVLSAHPYGCRVIQRAIEHCHSERKLIIEELLPHILKLTQDQYGNYVVQHILRTGSESDKKYIFDLMIDHLLFLSCHKFASNVVERCISYISDVDRRRILNKIISEKAENCSILMLMMKDKYANYVIQKLLDASPEEERDLLISYIYPHISVLKKFTYGKHLIMSVERFRQKSISAVPKLASKECK
In the case of B7, the Kd in assay [4] came to 160 nM; in assay [1], 100 nM.
